According to US20230265167A1, “COMPOSITIONS HAVING NEUROREGENERATIVE APPLICATIONS” (GRIFOLS WORLDWIDE OPERATIONS LIMITED, priority 2020, published 2023):

Test system: SH-SY5Y cells
Assay: Neurite outgrowth (differentiation) in SH-SY5Y cells, Tubulin Tracker imaging
Type: cell-based, human
Procedure: Transferrin is utilized in cell culture and in-vivo to deliver iron as a nutrient to cells. This is typically accomplished through the actions of holo-transferrin (HoloTf) binding to, and endocytosis by, its cognate receptor CD71, the transferrin receptor 1 (TfR1). Transferrin is typically believed to provide cells with iron as a means to promote and sustain metabolic activity. […] Induction of neuronal differentiation was assessed by morphological parameters of neurite formation (a key element typically used as a marker of neuronal differentiation, neuronal health, and function) according to the procedures of Agholme, 2010. J. of Alzheimer's Disease. Vol. 20:1p 069-108; and Dyberg et al., 2017. PNAS Vol 114 (32), E6603-E6612.
Undifferentiated SH-SY5Y cells were seeded into 96 well clear bottom plates in media containing 0.1% FBS. A serum-free base media was utilized as recommended by the supplier for SH-SY5Y cells (Sigma, Cat #94030304-1VL). Twenty-four hours after seeding cells, a 3× stock solution of ApoTf, final concentrations indicated on the x-axis, in serum free base media was added to the cells. ApoTf was obtained and purified from pooled human plasma and dosed at a final concentration of 0.2 mg/mL.
Cells were allowed to differentiate for 6 days. Neurite growth was assessed by imaging and image analysis. […]
After obtaining images, the MetaExpress Neurite Outgrowth analysis module (Molecular Devices) was used to identify cells, cell bodies, and quantify neurites. […] The Outgrowth Fold Change was determined by setting the untreated control cells to a value of 1 with all other treatments shown relative to untreated control.
Undifferentiated SH-SY5Y cells were seeded and treated as described in Example 1. Neurite growth was assessed by imaging and image analysis. […] After obtaining images, the MetaExpress Neurite Outgrowth analysis module (Molecular Devices) was used to identify cell bodies and quantify neurites. […] The Outgrowth Fold Change was determined by setting the untreated control to a value of 1 with all other treatments shown relative to untreated control. […]

B1: BDNF: brain-derived neurotrophic factor; NGF superfamily; SEQ ID NO: 6 (protein, listed as Homo sapiens)
chain: MFHQVRRVMTILFLTMVISYFGCMKAAPMKEANIRGQGGLAYPGVRTHGTLESVNGPKAGSRGLTSLADTFEHVIEELLDEDQKVRPNEENNKDADLYTSRVMLSSQVPLEPPLLFLLEEYKNYLDAANMSMRVRRHSDPARRGELSVCDSISEWVTAADKKTAVDMSGGTVTVLEKVPVSKGQLKQYFYETKCNPMGYTKEGCRGIDKRHWNSQCRTTQSYVRALTMDSKKRIGWRFIRIDTSCVCTLTIKRGR
differentiation of SH-SY5Y, factor alone (FIGS. 7A-7D, BDNF 25 ng/mL, GDNF 1000 ng/mL, CNTF 250 ng/mL, PACAP 200 nM): differentiation was not induced

B2: apo-lactoferrin: structural and functional homologue of apo-transferrin, obtained from Athens Research & Technology (protein, UniProt P02788 20-710, looked up)
Lactotransferrin: GRRRSVQWCAVSQPEATKCFQWQRNMRKVRGPPVSCIKRDSPIQCIQAIAENRADAVTLDGGFIYEAGLAPYKLRPVAAEVYGTERQPRTHYYAVAVVKKGGSFQLNELQGLKSCHTGLRRTAGWNVPIGTLRPFLNWTGPPEPIEAAVARFFSASCVPGADKGQFPNLCRLCAGTGENKCAFSSQEPYFSYSGAFKCLRDGAGDVAFIRESTVFEDLSDEAERDEYELLCPDNTRKPVDKFKDCHLARVPSHAVVARSVNGKEDAIWNLLRQAQEKFGKDKSPKFQLFGSPSGQKDLLFKDSAIGFSRVPPRIDSGLYLGSGYFTAIQNLRKSEEEVAARRARVVWCAVGEQELRKCNQWSGLSEGSVTCSSASTTEDCIALVLKGEADAMSLDGGYVYTAGKCGLVPVLAENYKSQQSSDPDPNCVDRPVEGYLAVAVVRRSDTSLTWNSVKGKKSCHTAVDRTAGWNIPMGLLFNQTGSCKFDEYFSQSCAPGSDPRSNLCALCIGDEQGENKCVPNSNERYYGYTGAFRCLAENAGDVAFVKDVTVLQNTDGNNNEAWAKDLKLADFALLCLDGKRKPVTEARSCHLAMAPNHAVVSRMDKVERLKQVLLHQQAKFGRNGSDCPDKFCLFQSETKNLLFNDNTECLARLHGKTTYEKYLGPQYVAGITNLKKCSTSPLLEACEFLRK
modifications: iron-free apo form
notes: structural and functional homologue of apo-transferrin, obtained from Athens Research & Technology
neurogenesis / differentiation of SH-SY5Y (FIG. 4, proteins at 0.2 mg/mL): induced differentiation

B3: N-mut rec ApoTf: Y95F/Y188F Transferrin N-lobe mutant protein, SEQ ID 4, reduced iron-binding capacity (protein)
chain: VPDKTVRWCAVSEHEATKCQSFRDHMKSVIPSDGPSVACVKKASYLDCIRAIAANEADAVTLDAGLVYDAYLAPNNLKPVVAEFYGSKEDPQTFFYAVAVVKKDSGFQMNQLRGKKSCHTGLGRSAGWNIPIGLLYCDLPEPRKPLEKAVANFFSGSCAPCADGTDFPQLCQLCPGCGCSTLNQYFGFSGAFKCLKDGAGDVAFVKHSTIFENLANKADRDQYELLCLDNTRKPVDEYKDCHLAQVPSHTVVARSMGGKEDLIWELLNQAQEHFGKDKSKEFQLFSSPHGKDLLFKDSAHGFLKVPPRMDAKMYLGYEYVTAIRNLREGTCPEAPTDECKPVKWCALSHHERLKCDEWSVNSVGKIECVSAETTEDCIAKIMNGEADAMSLDGGFVYIAGKCGLVPVLAENYNKSDNCEDTPEAGYFAVAVVKKSASDLTWDNLKGKKSCHTAVGRTAGWNIPMGLLYNKINHCRFDEFFSEGCAPGSKKDSSLCKLCMGSGLNLCEPNNKEGYYGYTGAFRCLVEKGDVAFVKHQTVPQNTGGKNPDPWAKNLNEKDYELLCLDGTRKPVEEYANCHLARAPNHAVVTRKDKEACVHKILRQQQHLFGSNVTDCSGNFCLFRSETKDLLFRDDTVCLAKLHDRNTYEKYLGEEYVKAVGNLRKCSTSSLLEACTFRRP
modifications: Y95F/Y188F mutant
neurogenesis (neurite outgrowth) of SH-SY5Y (FIG. 3B, proteins at 0.2 mg/mL): almost equal to that of ApoTf and rec ApoTf at inducing differentiation
